Test results: paper PMC8617505

Tested on: CC1(C)S[C@@H]2[C@H](NC(=O)Cc3ccccc3)C(=O)N2[C@H]1C(=O)O
Test: purified protein

## (Mycobacterium tuberculosis H37Rv)
  Km: 72.9 ± 0.8 µM
  kcat/Km: 640000 ± 10000 M⁻¹ s⁻¹

## (Escherichia coli)
  Km: 27 ± 4 µM
  kcat/Km: 9e+06 ± 2e+06 M⁻¹ s⁻¹
